In US20220119506A1 (NOVOBIND LIVESTOCK THERAPEUTICS, published 2022):

Molecular target: T1, PirB (Vibrio parahaemolyticus)
T1 construct: also called JHE-like toxin PirB-like
T1 chain: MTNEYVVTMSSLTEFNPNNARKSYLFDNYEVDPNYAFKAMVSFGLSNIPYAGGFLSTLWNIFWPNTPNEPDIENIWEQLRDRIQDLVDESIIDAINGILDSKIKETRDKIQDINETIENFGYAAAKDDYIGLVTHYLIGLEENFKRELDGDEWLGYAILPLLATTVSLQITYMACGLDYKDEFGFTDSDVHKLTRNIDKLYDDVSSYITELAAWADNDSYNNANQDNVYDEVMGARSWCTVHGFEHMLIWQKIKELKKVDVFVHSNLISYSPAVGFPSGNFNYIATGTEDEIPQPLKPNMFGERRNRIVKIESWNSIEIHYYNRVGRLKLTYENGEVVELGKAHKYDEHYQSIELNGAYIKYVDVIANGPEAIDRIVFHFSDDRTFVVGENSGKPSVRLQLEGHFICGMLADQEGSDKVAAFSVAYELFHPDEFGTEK
Assay: phage ELISA, antigen-coated wells

Row | Binder | binding above PBS-coated wells [%]
1 | NBX09007 (VHH, on phage in the phage ELISA) VHH: QVQLQESGGGLVQPGGSLRLSCAASGSISSSYVMGWYRQAPGKQRDLVATITNAGNIHYGDSVKGRFTISRDNAKNTVSLQMNSLKPEDTAVYYCNARALWRAYWGQGTQVTVSS | ≥ 50
2 | NBX0852 (VHH, on phage in the phage ELISA) VHH: QVQLQESGGGLVQAGGSLRLSCEASGRTFSSYRVGWFRQAPGKGREFVAAISATGGTTYYGDSVKGRFTISRDNAENTVSLQMNSLEPEDTAVYYCAATKGIVNYRVAGTYDAWGQGTQVTVSS | ≥ 50
3 | NBX0863 (VHH, on phage in the phage ELISA) VHH: QVQLQQSGGGLAQAGGSLRLSCAASGRTFNWYTMAWFRQAPGKEREFVAAIRLGSTVYGDSVKARFTISRDNAKSTVSLQMNSLKPEDTALYYCAVGITGDGTIQGGPYQYWGQGTQVTVSS | ≥ 50
4 | NBX09001 (VHH, on phage in the phage ELISA) VHH: QVQLQESGGGSVQPGGSLRLSCAASGSALSSNVLGWYRQAPGKQRELVATISSGGLTNYADSVKGRFTISRDNAKNTVYLQMNSLKPEDTAVYYCQSRRLFTVYWGQGTQVTVSS | ≥ 50
5 | NBX09002 (VHH, on phage in the phage ELISA) VHH: QVQLQESGGGLVQAGESLRLSCADSGRTSSTYDMAWFRQAPGKEREFVAAISRDGGRLSYADSVKGRFTISRDNAKNTLSLQMNSLRPEDTAVYYCAAFSIRGGLRPSYKYWGQGTQVTVSS | ≥ 50
6 | NBX0865 (VHH, on phage in the phage ELISA) VHH: QVQLQESGGGLVQAGGSLRLSCADSGRVFSTYVMGWYRQVPGKQRELVATITPGGLINYGDAVKGRFTISRDNAKNTVYLQMNSLKPADTAVYYCNARRLFAINWGGGTQVTVSS | ≥ 50
7 | NBX09003 (VHH, on phage in the phage ELISA) VHH: QVQLQESGGGLVQPGGSLRLSCTASGSIFSLLNMGWYRQAPGKQRELVASITSRSYTNYADSVKGRFTISRDNTKNMVYLQMNSLKPEDTAVYYCNLNPADWGRLRNWGQGTQVTVSS | ≥ 50
8 | NBX0862 (VHH, on phage in the phage ELISA) VHH: QVQLQESGGGLVQPGGSLRLSCSASGNRFSSSYVLGWYRQAPGKQRELVATVTSGGLTHYGDSVKGRFTISRDNAKNTVYLQMNSLKPEDTAVYYCNARILLTNYWGQGTQVTVSS | ≥ 50
9 | NBX0859 (VHH, on phage in the phage ELISA) VHH: QVQLQESGGGLVQPGGSLRLSCSASGNRFSSSYVMGWYRQGPGKQRELVATVTSGGMTHYGDSVKGRFTISRDNAKNTVYLHMNSLKPEDTGVYYCFARRLWDIHWGQGTQVTVSS | ≥ 50
10 | NBX0835 (VHH, on phage in the phage ELISA) VHH: QVQLQESGGGLVQPGGSLRLSCSASGNRFSSSYVMGWYRQAPGKQRELVATVTSGGLTHFKDSVKGRFTISRDNAKNTVYLQMNSLKPEDTAVYYCNARILLTNYWGQGTQVTISS | ≥ 50
11 | NBX0843 (VHH, on phage in the phage ELISA) VHH: QVQLQESGGGLVQPGGSLRLSCSASGNRFSSSYVMGYYRQAPGKQRELVATVTTGGLTNYADSVKGRFTISRDNAKNTVYLQMNSLKPEDTAVYYCNARILLTNYWGQGTQVTVSS | ≥ 50
12 | NBX0851 (VHH, on phage in the phage ELISA) VHH: QVQLQQSGGGLVQPGGSLRLSCAASGRMFSGYVMGWYRQAPGKQRELVATITNGGLTNYADSVKGRFTISRDNAKNTVYLQMNSLKPDDTAVYYCNARRLWDIYWGQGTQVTVSS | ≥ 50
13 | NBX0857 (VHH, on phage in the phage ELISA) VHH: QVQLQQSGGGLVQPGGSLRLSCAASGRIFSGHVMGWYRQAPGKQRELVATITNGGLTNYGDSVKGRFTISRDNAKNTVYLQMNSLKPDDTAVYYCNARRLWDTYWGQGTQVTVSS | ≥ 50
14 | NBX09005 (VHH, on phage in the phage ELISA) VHH: QVQLQESGGGLVQAGGSLRLSCAASGLTFGSYAMGWFRQAPGKEREFVAAIMRYSSRTYYTDSVKGRFTISRDNAKNTVNLQMNNLEPEDTAIYYCAAAKRLSIVTLPRQYEFWGQGTQVTVSS | ≥ 50
15 | NBX09009 (VHH, on phage in the phage ELISA) VHH: QVQLQESGGGLVQAGGSLRLSCAASGLTFGSYAMGWFRQAPGKEREFVATIMRYSSRTYYTDSVKGRFTISRDNAKNTVNLQMNNLEPEDAAIYYCAAAKRLSIVALPRQYEFWGQGTQVTVSS | ≥ 50
16 | NBX09010 (VHH, on phage in the phage ELISA) VHH: QVQLQQSGGGLVQAGGSLRLSCAASGLTFGSYAMGWFRQAPGKEREFVAAIMRYSSRTYYTDSVKGRFTISRDNAKNTVNLQMNNLEPEDTAIYYCAAAKRLSRVTLPREYEFWGQGTQVTVSS | ≥ 50

Row | Binder | binding above PBS-coated wells [%]
17 | NBX09006 (VHH, on phage in the phage ELISA) VHH: QVQLQESGGGLVQPGGSLRLSCAASGSISGSYVMGWYRQAPGKQRELVATITSGGLTRYADSVKGRWTISRDNAKNTVYLQMNNLKLEDTAVYYCSARRIATTYWGQGTQVTVSS | ≥ 50
18 | NBX0861 (VHH, on phage in the phage ELISA) VHH: QVQLQESGGGLVQAGGSLRLSCVASGSISNSHVMGWYRQAPGKERELVATLTSGGLTHFGDSVKGRFTISRDNAKNTIYLQMNSLKVEDTAVYYCNARRLLTSMWGQGTQVTVSP | ≥ 50
19 | NBX0855 (VHH, on phage in the phage ELISA) VHH: QVQLQESGGGLVQPGESLRLSCAASTSGFSSYVMAWYRQAPGKQRELVASMTTGGLTNYADSVKGRFTISRDNAKNTVYLQMNSLKPEDTAAYYCNARRLWNAYWGQGTQVTVSS | ≥ 50
20 | NBX09011 (VHH, on phage in the phage ELISA) VHH: QVQLQESGGGLVQPGESLRLSCAASTSGFSSYVMAWYRQAPGKQRELVASMTTGGLTNYADSVKGRFTISRDNAKNTVYLQMNSLKPEDTAAYYCNARRLWNAYWGQGTQVTVSS | ≥ 50
21 | NBX0404 (VHH, on phage in the phage ELISA) VHH: QVQLQESGGGLVQAGDSLRLSCATSGRTFSRYTMGWFRQTPGKEREFVAAISWSGTYYTDSVKGRFTISVDNAKNTVYLQMNSLKPEDTAVYYCASGSRRLYYSSDIDYWGQGTQVTVSS | ≥ 50
22 | NBX0626 (VHH, on phage in the phage ELISA) VHH: QVQLQQSGGGLVQAGGSLRLACAVSETTLATNAMAWYRQAQGKRREWVATISSVSSGGITNYSGSVKGRFTISRDNAKNTVFLQMNSLQPEDTAVYYCNGVRRGRSYWGQGTQVTVSS | ≥ 50
23 | NBX09008 (VHH, on phage in the phage ELISA) VHH: QVQLQESGGGLVQAGGSLRLSCSASGRTFSVRAMGWFRQAPGKERESVAAIHQNTRTTLYADSVKGRFAISRDGTKNTVYLQMNSLKPEDTAVYYCAASDDYGLQIKEVAYKYWGQGTQVTVAS | ≥ 50
24 | NBX0864 (VHH, on phage in the phage ELISA) VHH: QVQLQESGGGLVQPGGSLRLSCAASGIISSAYVMGWYRQAPGKQRELVATITSGGTTRYADSVKGRITISRDNAKNTVLLQMNSLKPEDTAVYYCNARILLTNYWGQGTQVTVSS | ≥ 50
25 | NBX0827 (VHH, on phage in the phage ELISA) VHH: QVQLQESGGGLVQAGGSLRLSCAASGSISSSFVMGWYRQAPGKQRELVATITSGGSTIYADSVKGRFTVSRDNAKNTVYLQMNSLKSEDTAVYYCHARRLWNTYWGQGTQVTVSS | ≥ 50
26 | NBX0831 (VHH, on phage in the phage ELISA) VHH: QVQLQESGGGLVQAGGSLRLSCSASGDAFSRYVMGWYRQAPGKQRELVATITSGGSTIYADSVKGRFTVSRDNAKNTVYLQMNSLKSEDTAVYYCHARRLWNTYWGQGTQVTVSS | ≥ 50
27 | NBX0854 (VHH, on phage in the phage ELISA) VHH: QVQLQQSGGGLVQAGGSLRISCAASGSISSAYVMGWYRQAPGTQRELVATITSGGTTNYADSVKGRFTVSRDNAKNTVYLQMNSLKPDDTAVYYCNARRLWTTYWGQGTQVTVSS | ≥ 50
28 | NBX0858 (VHH, on phage in the phage ELISA) VHH: QVQLQESGGGLVQAGGSLRLSCAASRRDFTTTTMAWYRQAPGKKRETVATVNTGGLTWYADFVKGRFTISRDDAVNTLLLQMDSLKPEDTAVYYCNAVLVRARGMWGQGTQVTVSS | ≥ 50
29 | NBX0614 (VHH, on phage in the phage ELISA) VHH: QVQLQQSGGGLVQAGGSLRLSCAASGSSFRSNAIGWYRQFPGKSRELIAVITRSGSTQYADSVKGRFTASRDNAKNMIYLQMNNLKLEDTAVYYCHDETMKLISVKNDYWGQGSQVTVSS | ≥ 50
30 | NBX0627 (VHH, on phage in the phage ELISA) VHH: QVQLQQSGGGLVQAGGSLRLSCAASGSSFRSNAIGWYRQSPGKSRELIAVITRSGSTQYADSVKGRFTASRDNAKNMIYLQMNSLKPEDTAVYYCHDETMKLITGKNDYWGQGTQVTVSS | ≥ 50
31 | NBX0850 (VHH, on phage in the phage ELISA) VHH: QVQLQESGGGLVQAGGSLRLSCAASGSISASYVMGWYRQTPGKQRELVATTTSGGTTRYADSVRGRFTISRDNARNTVYLQMNSLKPDDTAVYYCNARRLFLNYWGQGTQVTVSS | ≥ 50
